In patent US20020058275A1, “Compositions, kits, and methods for effecting adenine nucleotide modulation of DNA mismatch recognition proteins” (Thomas Jefferson University, priority 1997, published 2002):

What was measured:
Experiment in all cases: GST fusion protein interaction assay
Settings in all cases: 35S-labeled IVTT protein as prey
[1] = biological target: T1, GST-hMSH2 (Homo sapiens, UniProt P43246); assay type: binding
T1 construct: made in house; host or cells: E. coli (XL-blue), pGEX
Experimental: (§1) An overnight culture of E. coli XL-blue cells which harbored pGEX-hMSH(X) (i.e. ‘X’ being 2, 3, or 6) was grown in LB with […] ampicillin. 50 milliliter of Luria broth containing ampicillin was inoculated with 1 milliliter of the overnight culture, and the culture was incubated until the optical density, as assessed at 600 nanometers, was about 0.5. IPTG was added to a final concentration of 0.1 millimolar, and the culture container placed in a shaker at 30° C. for 2 hours to generate induced cells. […] GST-fusion protein levels were quantified as described herein. […] GST-fusion protein expression levels were quantitated by Coomassie Brilliant Blue staining of protein separated by SDS-PAGE gels, using BSA as a standard.
(§2) In vitro transcription and translation (IVTT) reactions involving ^35S-Methionine were performed with pET-hMSH(Y) (i.e. where ‘Y’ was 2, 3, or 6) using purified DNA according to the manufacturers recommendations. […] This value was calculated using the specific activity of ^35 S-Methionine, correcting for the number of methionine residues in each IVTT construct and using SDS-PAGE and a Molecular Dynamics Phosphorlmager device equipped with ImageQuant software (Sunnyvale, Calif.). […]

[2] = biological target: T2, GST-hMSH6 (Homo sapiens, UniProt P52701); assay type: binding
T2 construct: GST fusion proteins which comprised either full length hMSH3 or full length hMSH6; made in house; host or cells: E. coli (XL-blue), pGEX
Experimental: as §1, §2

[3] = test system: GST-hMSH3; assay type: binding, human
Experimental: as §1, §2

T2 sequence (P52701 whole entry, the tested form may be a part): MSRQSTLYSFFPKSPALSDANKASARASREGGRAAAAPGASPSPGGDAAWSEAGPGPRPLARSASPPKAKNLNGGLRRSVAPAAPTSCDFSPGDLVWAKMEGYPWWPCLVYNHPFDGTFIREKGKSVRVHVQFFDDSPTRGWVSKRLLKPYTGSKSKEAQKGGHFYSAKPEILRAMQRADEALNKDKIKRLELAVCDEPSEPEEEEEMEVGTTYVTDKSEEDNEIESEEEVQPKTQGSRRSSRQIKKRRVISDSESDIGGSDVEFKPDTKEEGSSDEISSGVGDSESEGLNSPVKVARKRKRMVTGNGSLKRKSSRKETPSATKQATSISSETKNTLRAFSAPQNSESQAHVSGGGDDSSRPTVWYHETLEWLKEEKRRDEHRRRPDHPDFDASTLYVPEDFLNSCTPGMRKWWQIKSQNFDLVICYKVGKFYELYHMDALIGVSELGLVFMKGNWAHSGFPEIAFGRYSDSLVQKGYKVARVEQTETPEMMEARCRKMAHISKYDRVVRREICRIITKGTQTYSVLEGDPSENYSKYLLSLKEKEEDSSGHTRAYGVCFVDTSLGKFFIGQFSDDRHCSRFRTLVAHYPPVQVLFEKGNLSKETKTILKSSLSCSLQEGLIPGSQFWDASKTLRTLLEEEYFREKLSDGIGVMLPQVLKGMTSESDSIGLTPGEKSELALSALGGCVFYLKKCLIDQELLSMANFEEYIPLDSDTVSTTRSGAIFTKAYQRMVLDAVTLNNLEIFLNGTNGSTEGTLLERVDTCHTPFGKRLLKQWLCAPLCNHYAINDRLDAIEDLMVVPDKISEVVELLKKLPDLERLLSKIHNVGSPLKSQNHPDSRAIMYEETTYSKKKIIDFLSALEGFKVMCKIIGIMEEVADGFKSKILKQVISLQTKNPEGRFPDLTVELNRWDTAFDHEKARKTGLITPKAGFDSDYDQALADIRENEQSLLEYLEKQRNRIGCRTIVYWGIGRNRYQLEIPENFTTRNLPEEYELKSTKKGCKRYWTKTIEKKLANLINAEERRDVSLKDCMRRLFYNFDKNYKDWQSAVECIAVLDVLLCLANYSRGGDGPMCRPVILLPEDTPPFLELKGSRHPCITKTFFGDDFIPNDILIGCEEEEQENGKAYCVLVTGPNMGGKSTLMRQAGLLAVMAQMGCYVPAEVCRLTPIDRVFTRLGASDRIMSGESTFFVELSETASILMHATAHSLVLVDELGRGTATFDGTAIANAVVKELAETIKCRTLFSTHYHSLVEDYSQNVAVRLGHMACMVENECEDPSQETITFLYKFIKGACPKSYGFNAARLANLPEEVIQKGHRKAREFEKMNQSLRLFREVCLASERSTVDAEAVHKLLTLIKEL
T1 sequence (P43246 whole entry): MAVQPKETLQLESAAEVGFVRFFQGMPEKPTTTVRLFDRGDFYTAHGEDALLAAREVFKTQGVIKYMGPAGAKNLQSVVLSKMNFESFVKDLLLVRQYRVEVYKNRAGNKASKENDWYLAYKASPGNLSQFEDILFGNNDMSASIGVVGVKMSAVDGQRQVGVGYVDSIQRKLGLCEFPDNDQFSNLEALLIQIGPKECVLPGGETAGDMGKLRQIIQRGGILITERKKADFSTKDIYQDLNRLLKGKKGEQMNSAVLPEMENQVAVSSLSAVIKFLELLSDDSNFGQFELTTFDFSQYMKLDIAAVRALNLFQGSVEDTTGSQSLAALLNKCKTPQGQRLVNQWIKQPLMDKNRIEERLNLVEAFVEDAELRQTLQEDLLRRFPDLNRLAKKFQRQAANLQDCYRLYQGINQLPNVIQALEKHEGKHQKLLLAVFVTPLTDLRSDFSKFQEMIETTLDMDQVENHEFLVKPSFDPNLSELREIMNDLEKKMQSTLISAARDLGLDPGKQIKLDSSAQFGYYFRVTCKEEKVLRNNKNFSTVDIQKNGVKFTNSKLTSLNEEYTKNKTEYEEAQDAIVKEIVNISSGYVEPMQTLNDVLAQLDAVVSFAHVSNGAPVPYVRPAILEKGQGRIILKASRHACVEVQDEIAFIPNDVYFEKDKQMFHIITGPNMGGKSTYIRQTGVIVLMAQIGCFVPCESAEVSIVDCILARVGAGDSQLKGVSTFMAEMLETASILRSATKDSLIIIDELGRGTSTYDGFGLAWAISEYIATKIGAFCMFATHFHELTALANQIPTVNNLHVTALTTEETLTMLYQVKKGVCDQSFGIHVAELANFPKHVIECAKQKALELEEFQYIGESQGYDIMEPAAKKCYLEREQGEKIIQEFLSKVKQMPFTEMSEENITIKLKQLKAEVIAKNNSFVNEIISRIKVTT

B1: hMSH5: human MutS homolog, putative 834-amino-acid protein encoded by clone b29 (SEQ ID NO: 29) (protein)
chain: MASLGANPRRTPQGPRPGAASSGFPSPAPVPGPREAEEEEVEEEEELAEIHLCVLWNSGYLGIAYYDTSDSTIHFMPDAPDHESLKLLQRVLDEINPQSVVTSAKQDENMTRFLGKLASQEHREPKRPEIIFLPSVDFGLEISKQRLLSGNYSFIPDAMTATEKILFLSSIIPFDCLLTVRALGGLLKFLGRRRIGVELEDYNVSVPILGFKKFMLTHLVNIDQDTYSVLQIFKSESHPSVYKVASGLKEGLSLFGILNRCHCKWGEKLLRLWFTRPTHDLGELSSRLDVIQFFLLPQNLDMAQMLHRLLGHIKNVPLILKRMKLSHTKVSDWQVLYKTVYSALGLRDACRSLPQSIQLFRDIAQEFSDDLHHIASLIGKVVDFEGSLAENRFTVLPNIDPEIDEKKRRLMGLPSFLTEVARKELENLDSRIPSCSVIYIPLIGFLLSIPRLPSMVEASDFEINGLDFMFLSEEKLHYRSARTKELDALLGDLHCEIRDQETLLMYQLQCQVLARAAVLTRVLDLASRLDVLLALASAARDYGYSRPRYSPQVLGVRIQNGRHPLMELCARTFVPNSTECGGDKGRVKVITGPNSSGKSIYLKQVGLITFMALVGSFVPAEEAEIGAVDAIFTRIHSCESISLGLSTFMIDLNQVAKAVNNATAQSLVLIDEFGKGTNTVDGLALLAAVLRHWLARGPTCPHIFVATNFLSLVQLQLLPQGPLVQYLTMETCEDGNDLVFFYQVCEGVAKASHASHTAAQAGLPDKLVARGKEVSDLIRSGKPIKPVKDLLKKNQMENCQTLVDKFMKLDLEDPNLDLNVFMSQEVLPAATSIL
modifications: left off: a dimerising Fc or GST; large carriers; small tags and cut ends
did not interact: interaction with GST-hMSH2 fusion protein [1] | interaction with GST-hMSH6 fusion protein [2] | interaction with GST-hMSH3 fusion protein [3]
